Laboratory results from patent US20210069339A1, “CNP PRODRUGS” (ASCENDIS PHARMA GROWTH DISORDERS A/S, priority 2015, published 2021).
Read-outs that look alike come from different tables or passages of the source. Bridges are numbered along the chain shown (N, C = ends). Where no end group is shown, it is not given here.

How the values were obtained:
[1] = molecular target: T1, neutral endopeptidase (NEP) (Homo sapiens, UniProt P08473); test: Digest of CNP variants by Neutral Endopeptidase in vitro; format: in vitro ADME; details: recombinant human neutral endopeptidase (NEP), pH 7.4, read-out: half life norm. (converted)
T1 construct: purchased Enzo Life Sciences GmbH, Lörrach, Germany
Description: Samples were taken at different time intervals. […] The resulting reaction products were assigned using HPLC-MS.

[2] = in vivo; cited from earlier work
[3] = doses up to 15 μg/kg, healthy volunteers; cited from earlier work
[4] = animal studies; cited from earlier work
[5] = after intravenous (iv) administration; cited from earlier work

T1 sequence (P08473 whole entry): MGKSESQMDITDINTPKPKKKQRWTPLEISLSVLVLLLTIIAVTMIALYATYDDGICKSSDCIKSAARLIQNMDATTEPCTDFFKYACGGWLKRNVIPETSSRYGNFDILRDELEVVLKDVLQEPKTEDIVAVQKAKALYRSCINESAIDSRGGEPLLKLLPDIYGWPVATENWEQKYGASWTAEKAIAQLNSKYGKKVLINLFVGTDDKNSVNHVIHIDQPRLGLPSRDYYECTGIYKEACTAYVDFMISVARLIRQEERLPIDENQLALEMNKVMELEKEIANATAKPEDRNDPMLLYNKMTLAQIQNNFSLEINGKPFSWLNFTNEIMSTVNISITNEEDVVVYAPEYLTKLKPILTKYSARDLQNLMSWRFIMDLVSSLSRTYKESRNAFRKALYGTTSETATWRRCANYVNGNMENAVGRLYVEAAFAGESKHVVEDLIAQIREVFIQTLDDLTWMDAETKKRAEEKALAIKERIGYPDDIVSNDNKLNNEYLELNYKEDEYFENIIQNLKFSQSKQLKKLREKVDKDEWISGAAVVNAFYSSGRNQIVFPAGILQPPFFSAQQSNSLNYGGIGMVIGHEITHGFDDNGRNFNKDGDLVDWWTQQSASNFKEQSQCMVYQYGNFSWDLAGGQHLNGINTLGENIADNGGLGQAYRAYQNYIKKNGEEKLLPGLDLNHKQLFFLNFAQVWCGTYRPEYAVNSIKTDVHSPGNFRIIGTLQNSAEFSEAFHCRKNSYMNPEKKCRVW

**Q.** For `CC[C@H](C)[C@@H]1NC(=O)[C@H](CCCNC(=N)N)NC(=O)[C@H](CC(=O)O)NC(=O)[C@H](CC(C)C)NC(=O)[C@H](CCCCN)NC(=O)[C@H](CC(C)C)NC(=O)CNC(=O)[C@H](Cc2ccccc2)NC(=O)[C@@H](NC(=O)CNC(=O)[C@H](CCCCN)NC(=O)[C@H](CO)NC(=O)[C@H](CC(C)C)NC(=O)CN)CSSC[C@@H](C(=O)O)NC(=O)CNC(=O)[C@H](CC(C)C)NC(=O)CNC(=O)[C@H](CO)NC(=O)[C@H](CCSC)NC(=O)[C@H](CO)NC(=O)CNC1=O` [CNP-22], which half-life at 100 μg CNP equivalents/mL [1] is on record?
**A.** Its half-life at 100 μg CNP equivalents/mL is 19.2 min.

**Q.** With “BMN-111: modified recombinant human C-type Natriuretic Peptide where 17 amino acids have been added to form a 39 amino acid CNP pharmacological analog (PGQEHPNARKYKGANKKGLSKGCFGLKLDRIGSMSGLGC; disulfide 23-39; chains of the INN, looked up)” as the molecule, how does the half-life [2] read?
**A.** The half-life was 20 min.

**Q.** What about the cardiovascular effect [3] of the same molecule?
**A.** Its cardiovascular effect is “mild hypotension”.

**Q.** What about the immunogenicity [4] of the same molecule?
**A.** The immunogenicity was “immunological response”.

**Q.** For “CNP: C-type natriuretic peptide, as discussed in the background”, which half-life [5] is on record?
**A.** The half-life was 2 min.
